{"source": "the RNAGym collection of RNA variant scans (doi:10.1073/pnas.2313332121)", "parents": {"B1": {"name": "TPR t1 (parent)", "chain": "GACCAAUCUGCCCUCAGAGCUCGAGAACAUCUUCGGAUGCAGAGGAGGCAGGCUUCGGUGGCGCGAUAGCGCCAACGUCCUCAACCUCCAAUGCAUCCCACCACAUGAUGAUGCCUGAAGAGCCUUGGUUUUUUG"}}, "data": [{"variants_of": "B1", "experiment": "polymerase ribozyme fitness, log enrichment relative to wild type (log ratio); higher = more active; in vitro selection for triplet polymerase activity", "how_it_was_run": "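Mutant libraries were PCR-built and transcribed for each subunit of a heterodimeric triplet polymerase ribozyme and selected for one round in triplicate at −7 °C, frozen, before gel excision of extended constructs and streptavidin-bead capture. Input and output libraries were Illumina-sequenced, keeping genotypes with ≥10 input reads and ≥1 read per output. Fitness is a logarithmic ratio of genotype to wild-type enrichment, in base 2, using inverse-variance-weighted replicate averages.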", "values": [{"variant": "U9G G63U G120C", "polymerase ribozyme fitness (log ratio)": 0.237}, {"variant": "U9G C28U G61U C72G U87A G122A", "polymerase ribozyme fitness (log ratio)": -1.55}, {"variant": "U9G G51C", "polymerase ribozyme fitness (log ratio)": -3.27}, {"variant": "G10U G35A G117C", "polymerase ribozyme fitness (log ratio)": -6.56}, {"variant": "G10U C62A", "polymerase ribozyme fitness (log ratio)": -1.53}, {"variant": "G10U C62U", "polymerase ribozyme fitness (log ratio)": -0.108}, {"variant": "G10C U78C", "polymerase ribozyme fitness (log ratio)": -1.63}, {"variant": "U9G G23U", "polymerase ribozyme fitness (log ratio)": -6.6}, {"variant": "C11A G36A G61U G128A", "polymerase ribozyme fitness (log ratio)": -4.02}, {"variant": "U9G C13U C49G C82U", "polymerase ribozyme fitness (log ratio)": -0.776}, {"variant": "G10A C97U C101U A105G U130G", "polymerase ribozyme fitness (log ratio)": -5.15}, {"variant": "U9G C97U A100C A108G", "polymerase ribozyme fitness (log ratio)": -2.87}, {"variant": "G10U A84G C86A", "polymerase ribozyme fitness (log ratio)": -0.969}, {"variant": "G10A G42A G44A C72U", "polymerase ribozyme fitness (log ratio)": -1.94}, {"variant": "G10A A74G A91C C124G", "polymerase ribozyme fitness (log ratio)": -0.108}, {"variant": "U9G C73U C82A A83C A118U G128A", "polymerase ribozyme fitness (log ratio)": -1.71}, {"variant": "U9G C49A C104A", "polymerase ribozyme fitness (log ratio)": -1.57}, {"variant": "G10A U133G", "polymerase ribozyme fitness (log ratio)": -0.322}, {"variant": "U9G G45A G93U C114A", "polymerase ribozyme fitness (log ratio)": -2.75}, {"variant": "G10U G52U C73G", "polymerase ribozyme fitness (log ratio)": -0.827}, {"variant": "G10U C53G C56U A74C C76A A95G G122U", "polymerase ribozyme fitness (log ratio)": -0.515}, {"variant": "U9G G10C", "polymerase ribozyme fitness (log ratio)": 0.723}, {"variant": "U9G G10U", "polymerase ribozyme fitness (log ratio)": 0.261}, {"variant": "C11A C101G", "polymerase ribozyme fitness (log ratio)": -3.13}, {"variant": "C11A C13G C20U C53U C64U U78G", "polymerase ribozyme fitness (log ratio)": -3.27}, {"variant": "C11A A41U G71U C72U A100U A103G C115A", "polymerase ribozyme fitness (log ratio)": -6.78}, {"variant": "U9G C20A U131A", "polymerase ribozyme fitness (log ratio)": -1.99}, {"variant": "G10A G48C U54A C94U G110U A121C C123G", "polymerase ribozyme fitness (log ratio)": -1.01}, {"variant": "G10A A27G G71A C86U", "polymerase ribozyme fitness (log ratio)": -3.87}, {"variant": "U9G G36U C70U A74U", "polymerase ribozyme fitness (log ratio)": -1.42}, {"variant": "C11A C28G G44A C70U A121C", "polymerase ribozyme fitness (log ratio)": -4.42}, {"variant": "G10A C28G G47U U59G", "polymerase ribozyme fitness (log ratio)": -5}, {"variant": "G10A G47C C89U C124G", "polymerase ribozyme fitness (log ratio)": -0.208}, {"variant": "G10U", "polymerase ribozyme fitness (log ratio)": -0.124}, {"variant": "G10A", "polymerase ribozyme fitness (log ratio)": 0.148}, {"variant": "G10C", "polymerase ribozyme fitness (log ratio)": -0.497}, {"variant": "U9G G36C C56U C76U C85U A118U", "polymerase ribozyme fitness (log ratio)": -2.3}, {"variant": "U9G G52A U112C", "polymerase ribozyme fitness (log ratio)": 1.21}, {"variant": "G10A C53A", "polymerase ribozyme fitness (log ratio)": -0.00777}, {"variant": "G10U A50C C80U G120U", "polymerase ribozyme fitness (log ratio)": -0.0895}, {"variant": "U9G G19U G44A G58C C64U A74G", "polymerase ribozyme fitness (log ratio)": -4.3}, {"variant": "G10U A75U G77A C86A", "polymerase ribozyme fitness (log ratio)": -1.69}, {"variant": "G10A C20U G57U G113U", "polymerase ribozyme fitness (log ratio)": -2.28}, {"variant": "G10U C114U", "polymerase ribozyme fitness (log ratio)": -2.39}, {"variant": "G10C U30C G71A G117A", "polymerase ribozyme fitness (log ratio)": -5.64}, {"variant": "U9G U55A", "polymerase ribozyme fitness (log ratio)": -0.0521}, {"variant": "U9G G17A C56U A83U C89A C101A", "polymerase ribozyme fitness (log ratio)": -4.6}, {"variant": "G10U A37U G52U C56U C73G U116G", "polymerase ribozyme fitness (log ratio)": -4.51}, {"variant": "C11A C85U G120U", "polymerase ribozyme fitness (log ratio)": 0.755}, {"variant": "U9G G48U C49U G69U G120U", "polymerase ribozyme fitness (log ratio)": 0.977}, {"variant": "U9G G117A", "polymerase ribozyme fitness (log ratio)": 0.595}, {"variant": "U9G G60A A90C", "polymerase ribozyme fitness (log ratio)": -0.347}, {"variant": "G10U C13G U78A C104U", "polymerase ribozyme fitness (log ratio)": 0.299}, {"variant": "U9G G65C G69C", "polymerase ribozyme fitness (log ratio)": -5.37}, {"variant": "G10A C73U U78A C79U C94A", "polymerase ribozyme fitness (log ratio)": -0.0725}, {"variant": "G10A C13G A27U C72U A105U", "polymerase ribozyme fitness (log ratio)": -3.22}, {"variant": "U9G C34U U59A A103U", "polymerase ribozyme fitness (log ratio)": -5.76}, {"variant": "C11A C70U C76A", "polymerase ribozyme fitness (log ratio)": -3.78}, {"variant": "G10A U109A", "polymerase ribozyme fitness (log ratio)": -5.39}, {"variant": "G10C C13A G58A G71A C98U", "polymerase ribozyme fitness (log ratio)": -3.11}, {"variant": "C11A C15A A37G C40A G120U", "polymerase ribozyme fitness (log ratio)": -6.11}, {"variant": "G10A C53G G61A A95G", "polymerase ribozyme fitness (log ratio)": -0.503}, {"variant": "U9G C28G A111C G122A", "polymerase ribozyme fitness (log ratio)": -4.22}, {"variant": "U9G C12G G93C", "polymerase ribozyme fitness (log ratio)": -0.487}, {"variant": "U9G C99U C124A U131G", "polymerase ribozyme fitness (log ratio)": -3.14}, {"variant": "C11A A37G U81G", "polymerase ribozyme fitness (log ratio)": -5.66}, {"variant": "C11A C13U G19A C56G C72U", "polymerase ribozyme fitness (log ratio)": -4.6}, {"variant": "G10C A43U C62A C114U U116C U133G", "polymerase ribozyme fitness (log ratio)": -6.43}, {"variant": "C11A C40U G45A G61A U96G C124A", "polymerase ribozyme fitness (log ratio)": 0.365}, {"variant": "G10U U14A C53G A95U G120U", "polymerase ribozyme fitness (log ratio)": 0.647}, {"variant": "G10C G48C C102U", "polymerase ribozyme fitness (log ratio)": -2.77}, {"variant": "G10U G44C G61C", "polymerase ribozyme fitness (log ratio)": -3.37}, {"variant": "U9G U87G", "polymerase ribozyme fitness (log ratio)": 0.583}, {"variant": "U9G U87C", "polymerase ribozyme fitness (log ratio)": -0.367}, {"variant": "G10U U21G C64A A95G C123U U125A", "polymerase ribozyme fitness (log ratio)": -6.83}, {"variant": "G10U C53G G61C A84U", "polymerase ribozyme fitness (log ratio)": -1.21}, {"variant": "U9G C20G G44C C72U C114G", "polymerase ribozyme fitness (log ratio)": -6.99}, {"variant": "G10U G39U G77C A100C", "polymerase ribozyme fitness (log ratio)": -2.58}, {"variant": "G10U G60U", "polymerase ribozyme fitness (log ratio)": -0.931}, {"variant": "G10U A18G A43C C72U C80U C85U G120U", "polymerase ribozyme fitness (log ratio)": -3.18}, {"variant": "U9G C15A C70G A111U G117C", "polymerase ribozyme fitness (log ratio)": -5.91}, {"variant": "G10A C20U", "polymerase ribozyme fitness (log ratio)": -1.18}, {"variant": "U9G C12G U33A G42A C72G G93A G110U U116A", "polymerase ribozyme fitness (log ratio)": -7.22}]}]}
